Results as given in US20250282887A1 (Amgen, published 2025).
Residue numbers refer to the chain shown, from its start.

B1: 1I14 (antibody, V domains shown)
VH: QSVEESGGRLVTPGTPLTLTCTISGFSLSSYAMSWVRQAPGKGLEWIGSIGGGGSAVYASWAKGRFTISKTSTTVDLRITSPTTEDTAMYFCGRGFYSIDLWGPGTLVTVSS
VL: DVVMTQTPASVEATVGGTVTIKCQSSQSVYDNNALAWYQQNAGQRPRLLIYGASTLASGVPSRFSASGSGTEFTLTISDLECADAATYYCQCTYYVSSYQNDFGGGTEVVVKG
notes: also called MAGE-B2 (1i14)
B2: 1C3 (antibody, V domains shown)
VH: QSLEESGGGLVQPEGSLTLTCTAFGVTLTNYYICWVRQAPGKGLEWVGCIDNANGRTYYASWAKGRFTISKTSSTTGTLQMTSLTAADTATYFCARSLATPLWGPGTLVTVSS
VL: DIVMTQTPSSVEAAVGGTVTIKCQASQNISSYLAWYQQKPGQPPKLLIYRASTLASGVPSRFKGSGSGTQFTLTISDLECADAATYYCQSYDDSRSSNFFYAFGGGTEVVVKG
notes: also called MAGE-B2 (IC3); anti-MAGEB2 antibody 1C3
B3: 4G17 (antibody, IgG1, V domains shown)
VH: B2 VH with F24S, T29S, V47I, A53V
VL: DIVMTQTPASVEAAVGGTVTIKCQASQNIDSYLAWYQQKPGQPPKLLIYRASTLASGVPSRFKGSGSGTEFTLTISDLECADAATYYCQSYDDSRSSSFFYGFGGGTEVVVK
notes: Rabbit monoclonal IgG1; Tested as supernatant and as small batch purified antibody; also called MAGE-B2 (4G17); anti-MAGEB2 antibody 4G17
B4: 1J15 (antibody, IgG1, V domains shown)
VH: B2 VH with V26F, T29N, V47I, G48A, G77V, A99S
VL: B3 VL with N28S, D30S, A34S, K63R, E70Q, R95S, S96D, S97N, S98N, K112R
notes: Rabbit monoclonal IgG1; Tested as supernatant and as small batch purified antibody; also called MAGE-B2 (IJ15); anti-MAGEB2 antibody 1J15

Molecular target: T1, human MAGEB3 (human, UniProt O15480 1-346)
T1 construct: whole, on cells; Transfected into CHO cells with Myc/DDK tags
T1 sequence (looked up): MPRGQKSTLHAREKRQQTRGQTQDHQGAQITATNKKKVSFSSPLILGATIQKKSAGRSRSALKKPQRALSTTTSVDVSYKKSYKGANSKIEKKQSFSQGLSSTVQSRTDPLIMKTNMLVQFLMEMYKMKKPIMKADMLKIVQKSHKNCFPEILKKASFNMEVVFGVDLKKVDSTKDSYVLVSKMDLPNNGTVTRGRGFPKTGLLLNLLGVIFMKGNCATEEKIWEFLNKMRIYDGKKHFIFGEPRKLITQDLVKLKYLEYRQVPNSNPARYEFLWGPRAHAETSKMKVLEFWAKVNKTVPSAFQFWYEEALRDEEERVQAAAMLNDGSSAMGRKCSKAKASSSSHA
Experiment: IHC, FFPE CHO cells transfected with human MAGEB3
Excerpt: (§1) Negative control cells included parental Chinese hamster ovary (CHO) cells, CHO cells stably transfected with mCherry Vector Control (minus Myc/DDK tags), CHO cells stably transfected with mCherry-human DCAF4L2 (plus Myc/DDK tags). The cross-reactivity control cells included CHO cells transfected with mCherry Vector Control (plus Myc/DDK tags) with one of the human MAGE-B or MAGE-A family members (MAGEA1, MAGEA2, MAGEA3, MAGEA4, MAGEA5, MAGEA6, MAGEA8, MAGEA9, MAGEA11, MAGEA12, MAGEB1, MAGEB3, MAGEB4, MAGEB5, MAGEB6, MAGEB10, MAGEB16, MAGEB17, MAGEB18). Positive control cell lines included CHO cells transfected with mCherry Vector (plus Myc/DDK tags) with human MAGE-B2 or CHO cells transfected with mCherry Vector (open reading frame (ORF); minus Myc/DDK tags) with human MAGEB2, and thirteen human cancer cell lines with known endogenous RNA expression level of MAGEB2 (U266B1, T98G, KMM-1, U20S, CFPAC-1, SCaBER, UACC-257, CFPAC-1, VMRC-LCD, NCI-H1703, UM-UC-3, NCI-H1395, NCIH82).
(§2) FFPE samples were sectioned at 4 μm and mounted on positive charged glass slides. After mounting, paraffin sections were air-dried at room temperature. FFPE TMA samples were received as freshly sectioned and mounted on glass slides. The fully automated IHC assay was performed on a Discovery Ultra Stainer (Ventana Medical Systems, Tucson, AZ) using Ventana Anti-Rabbit HQ (cat #760-4815), Ventana Anti-HQ HRP (cat #760-4820), and Ventana Antibody Diluent with Casein (cat #760-219) (Ventana Medical Systems, Tucson, AZ). The slides were baked on the Discovery Ultra Stainer at 60° C. for 8 minutes, de-paraffinized with Ventana Discovery wash (cat #950-510) for 3 cycles (8 minutes each) at 69° C., and underwent cell conditioning (target retrieval) at 95° C. for 16 minutes (for cell arrays) or 32 minutes (tissues or TMAs) in CC1 buffer (cat #950-500). Following this, slides were incubated with Background Sniper (cat #BS966M, Biocare Medical, Pacheco, CA) in a Ventana Option Prep kit (cat #771-751) for 28 minutes, incubated with CM inhibitor (a part of the Ventana DAB kit cat #760-159) for 12 minutes, and incubated for 1 h at RT with MAGE-B2 antibody diluted with Ventana diluent with Casein in a Ventana Prep kit (cat #770-001) (working concentration at 0.1 μg/ml for cell pellet, or 1-5 ug/ml for tissues) or with a matched concentration of isotype control Rabbit IgG1 antibody.

Binding result, no binding (tested: 0.1 µg/ml):
B1, B2, B3, B4

Molecular target: T2, human MAGEB10 (human, UniProt Q96LZ2 1-347)
T2 construct: whole, on cells; FFPE cell pellets
T2 sequence (looked up): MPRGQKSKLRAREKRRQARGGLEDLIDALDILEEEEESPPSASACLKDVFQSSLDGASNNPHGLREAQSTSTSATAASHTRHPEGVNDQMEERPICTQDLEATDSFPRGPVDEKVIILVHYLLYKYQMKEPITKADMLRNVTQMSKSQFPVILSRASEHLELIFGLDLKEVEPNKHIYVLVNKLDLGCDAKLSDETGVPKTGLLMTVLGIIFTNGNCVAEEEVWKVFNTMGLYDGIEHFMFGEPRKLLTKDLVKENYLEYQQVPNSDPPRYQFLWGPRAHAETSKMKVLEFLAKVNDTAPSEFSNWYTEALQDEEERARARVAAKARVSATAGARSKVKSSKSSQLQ
Experiment: IHC, FFPE CHO cells transfected with human MAGEB10
Excerpt: as §1, §2

Binding result, no binding (tested: 0.1 µg/ml):
B1, B2, B3, B4
